Assay results published in publication PMC8594541.

B1: 1-deoxy-D-xylulose 5-phosphate reductoisomerase (AbIspC) (Acinetobacter baumannii AB307-0294) (protein)
chain: MTQSVCILGVTGSIGRSTLKILGQHPDKYSVFAVSAHSRISELVEICKQFRPKVVVVPEQKIAELKTLFAQQNISDIDVLAGQEGLVDIASHTDVDIVMAAIVGAAGLLPTLAAVKAGKRVLLANKEALVMSGEIMMQAARDHQALLLPVDSEHNAIFQSLPHNYLQADRTGQPQLGVSKILLTASGGPFLNHSLEQLVHVTPQQACKHPNWSMGQKISVDSATLMNKGLELIEACHLFSISEHFVTVVVHPQSIIHSMVQYVDGSTLAQMGNPDMCTPIAHALAWPERLQTNVPALDLFEYSQLNFQAPDTQKFPALNLARQAMRAGGLAPTILNAANEIAVEAFLMERIGFTSIPQVVEHTLEKLENAAAESIECILDKDKVARSVAQQYISSIGG
B2: 1-deoxy-D-xylulose 5-phosphate reductoisomerase (KpIspC) (Klebsiella pneumoniae subsp. pneumoniae MGH 78578) (protein)
chain: MKQLTVLGSTGSIGCSTLDVVRHNPGRFSVAALVAGKNVDRMVEQCLEFTPRYAVMDDAQSAERLRTRLHEHGSRTEVLSGQQAAAEVAALDEVDQVMAAIVGAAGLVPTLAAIRAGKTVLLANKESLVTCGRLFMEAVQQSGARLLPVDSEHNAIFQSMPETIQQHLGYADLAQNGVSSILLTGSGGPFRETAVAELAAMTPDQACRHPNWSMGRKISVDSATMMNKGLEYIEARWLFNASAQQMEVLIHPQSVIHSMVRYQDGSVLAQLGEPDMRTPIAHTMGWPQRLNSGVKPLDFCQLSNLSFSAPDYTRYPCLKLAMDAFDVGQAATTTLNAANEESVAAFLHGDIRFTDIAAVNLAVLDKMDLQEPQSIDDVLVIDAEARAIAHQQLQRLVAQA

Columns and labels:
[1] = substrate: CC(=O)[C@@H](O)[C@H](O)COP(=O)(O)O; test: purified protein; assay type: biochemical, Acinetobacter baumannii; conditions: NADPH, Mg2+
[2] = substrate: CC(=O)[C@@H](O)[C@H](O)COP(=O)(O)O; test: purified protein; assay type: biochemical, Klebsiella pneumoniae; conditions: NADPH, Mg2+

Row | Protein | Km [1] | kcat [1] | Km [2] | kcat [2]
1 | B1 | 127.6 µM | 1.92 ± 0.03 s⁻¹ | – | –
2 | B2 | – | – | 155.5 µM | 2.21 ± 0.06 s⁻¹
